Test system: MS2 coat protein
Assay: apparent KD of MS2 coat protein; designed switch direction (-1 OFF switch, 1 ON switch): 1; higher = weaker reporter binding
Procedure, shortened: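 The buffer was Tris-HCl pH 7.5 with KCl, MgCl2, BSA, DTT, tRNA and Tween-20. In it, SNAP-549-labelled MS2 coat protein was titrated in doubling steps from 0.7 or 1.5 nM to 3 µM over chip-bound RNA switches transcribed by stalled E. coli RNA polymerase on Illumina chips. Apparent KD is the per-design median over clusters of curve fits to normalised fluorescence.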

[1] = input ligand: microRNA oligo, concentration not stated
[2] = Eterna round: R95, input ligand: FMN 200 uM
[3] = Eterna round: R95, input ligand: microRNA oligo, concentration not stated
[4] = Eterna round: R95, input ligand: none

Sequence	apparent KD of MS2 coat protein (input ligand: FMN 200 uM)	apparent KD of MS2 coat protein [1]	apparent KD of MS2 coat protein (input ligand: none)	apparent KD of MS2 coat protein [2]	apparent KD of MS2 coat protein [3]	apparent KD of MS2 coat protein [4]
CGGAGACGUCAAGGAUAUGCUACCGUUUCGGUAGCAGAAGGUGAUCACAUGAGGAUCACCCAUGUAUGCAUGCGUGAGCGUGCU [JL SSNG1 3.51] (Eterna round: R96, puzzle: Same State NG 1)	125 nM	99.2 nM	21.1 nM	–	–	–
CGCCAGAGAACAGGAUAUGGGCCGCAGCCUAUGGGCCGCGAACUCACAUGAGGAUCACCCAUGUCCCAGAAGGGUUCCUGGCUG [Tiusonon] (Eterna round: R96, puzzle: Same State NG 2)	154 nM	596 nM	2070 nM	–	–	–
AACAAUCUAUCUGAGGAUAUUAUGAAAUAAACAUGAGGAUCACCCAUGUGCAGGAAAACUGCAUAUGAGAAGGCAGAUAGAUUGA [salish99_ss2_r3_027] (puzzle: Same State 2)	–	–	–	18.8 nM	336 nM	636 nM
CUACGAGCGCCACAGGAUAUACUGAGACUCACAUGAGGAUCACCCAUGUCCAAUUCUCCCAAAUAGUAGAAGGGUGACGCGCUCA [Soordire] (puzzle: Same State 2)	–	–	–	51.1 nM	565 nM	546 nM
GAGCCAGUCCGAGGAUAUUCAUACAUGAGGAUCACCCAUGUAGGCUCAGAAAAGAAAGAGCCUUGGGAGAAGGCGGACUGGCUC [Xeonanisa<<6] (Eterna round: R96, puzzle: Same State NG 2)	6.96 nM	6.06 nM	10.9 nM	–	–	–
GCUCCAAACACAGGAUAUGGAAUCUGAUUCAUGCGAGUGACAUGAGGAUCACCCAUGUCCGGCAGCCAGAAGGGUGGGAAACAU [Eternabot solution 27] (Eterna round: R96, puzzle: Same State NG 2)	184 nM	151 nM	201 nM	–	–	–
GGUAGGUUACUACCAAACAUGAGGAUCACCCAUGUAAAUGGGAAGGAUAUGGUACCUAUUUGGUACCAGAAGGUCUAAAUAAUU [Mat - Same State NG 3 - JL Mod - D94] (Eterna round: R96, puzzle: Same State NG 3)	392 nM	821 nM	1020 nM	–	–	–
UUAAAACAUGAGGAUCACCCAUGUCAUCUAAGUCGAGGAUAUGGGAAUUAAUUAAUUAAACCAGAAGGCGAAUAUU [Mat - Same State 1 - D90] (puzzle: Same State 1)	–	–	–	38.6 nM	439 nM	543 nM
GUGGUCAGACAUGAGGAUCACCCAUGUGGAAUAAAUAAGGAGAAGGAUAUGUAAUAUAGGAUAUAACAGAAGGUUUGGUUGGUG (Eterna round: R96, puzzle: Same State NG 3)	105 nM	69.7 nM	96.5 nM	–	–	–
ACAUGAAAGUUAGGAUAUUUUGUACCUACAUGUGACAUGAGGAUCACCCAUGUGGUAAGUAUAAGAGAGAAGGAGCAGAUAUGU [Equivalence 1 - Jieux - Same State NG 2] (Eterna round: R96, puzzle: Same State NG 2)	45.1 nM	48.1 nM	52.8 nM	–	–	–
UGUUAACAUGAGGAUCACCCAUGUCAAAUGAAUCGAGGAUAUGGGAAGUAAGAAGAGAAACUAGAAGGCGAAGUUG [Altered State 1-3 - Jieux - Same State 1] (puzzle: Same State 1)	–	–	–	97.2 nM	72.9 nM	226 nM
UCUUGGUUUUUGCUCGUUUUUUGUGUUGAACAUGAGGAUCACCCAUGUAUUGUACAGUCCAAUUUAAUAAUGGUCCG [JMF 53] (puzzle: Sensor for hsa-mir-208a)	–	–	–	34.2 nM	25.4 nM	46.7 nM
GACAAUCUAUCUGAGGAUAUCAUGAAAAAAACAUGAGGAUCACCCAUGUGCAGGAAAACUGCAUAUGAGAAGGCAGAUAGAUUGU [salish99_SS2_r3_010] (puzzle: Same State 2)	–	–	–	45.3 nM	689 nM	627 nM
AUUUAACAAGCUUUUUGCUCGUCUUAUAAACAUGAGGAUCACCCAUGUAAUAGCGUGAGAGUAAAUAAAUAAAUAAU [JMF 82] (puzzle: Sensor for hsa-mir-208a)	–	–	–	17.1 nM	42.7 nM	14.2 nM
AUUUAACAAGCUUUUUGCUCGUCUUAUAAACAUGAGGAUCACCCAUGUAAUAGCGUGAGAGUAAAUAUAUAAAUAAU [JMF 85] (puzzle: Sensor for hsa-mir-208a)	–	–	–	13.8 nM	42.2 nM	11.9 nM
AGUCCAGCCUGAGCUGGACAAAAGCAUGUACAUGAGGAUCACCCAUGUCAUGUACAAGCUUUUUGCUCGUCUUAAGA [Mat - hsa-mir-208a - Mod of JL - D21] (puzzle: Sensor for hsa-mir-208a)	–	–	–	561 nM	16.5 nM	933 nM

Sequence	apparent KD of MS2 coat protein (input ligand: FMN 200 uM)	apparent KD of MS2 coat protein [1]	apparent KD of MS2 coat protein (input ligand: none)	apparent KD of MS2 coat protein [2]	apparent KD of MS2 coat protein [3]	apparent KD of MS2 coat protein [4]
CCGAGUGGCGUACAGGAUAUGUUGCGUGGAACAUGAGGAUCACCCAUGUAUUUGCUCCUGCAUACGCAGAAGGGUGCGUCCUGGG [Estedibe] (Eterna round: R96, puzzle: Same State 2)	16 nM	24.1 nM	29.3 nM	–	–	–
ACGCAGCUGGGCUAGGAUAUCGGUGGUAAAACAUGAGGAUCACCCAUGUCCGAAGCUCGGACUUCCGAGAAGGAGCCCGGCUGCG [Soinraesar Omei Mod 9] (puzzle: Same State 2)	–	–	–	34.1 nM	253 nM	481 nM
UGGUACAUGGGAGGAUAUCAUGUAGAAACAUGAGGAUCACCCAUGUAGGUGGCACGAUUCGUGAAUGAGAAGGCCCAUGUACCU [JL SSNG1 3.61] (Eterna round: R96, puzzle: Same State NG 2)	312 nM	225 nM	376 nM	–	–	–
UUAAUUAAUUAAUUAUACAUGAGGAUCACCCAUGUAAGUGAUCAGGAUAUCAGCUCGUGUAGAGCUGAGAAGGGAUACAUGUAA [SSNG3/12-A4] (Eterna round: R96, puzzle: Same State NG 3)	–	147 nM	–	–	–	–
GGUAGGUUACUACCAAACAUGAGGAUCACCCAUGUAAGUGGGAAGGAUAUGGUACCGAAACGGUACCAGAAGGUCCAUAUAGUA [Mat - Same State NG 3 - JL Mod - D100] (Eterna round: R96, puzzle: Same State NG 3)	324 nM	564 nM	1100 nM	–	–	–
GUAUAACAUGAGGAUCACCCAUGUCAUCUAAGUCGAGGAUAUGGGCAAAUAAUAUAAGAACCAGAAGGCGAAUAUG [Mat - Same State 1 - Mod of UCT - D35] (puzzle: Same State 1)	–	–	–	61.8 nM	122 nM	359 nM
UGUUGUAUUACAGGAUAUCUAGGAUUUUUAUUUAGAGAAGGGUAUUCACAUGAGGAUCACCCAUGUAUAUACGAGGAAGUUGUG [JMF's solution 31] (Eterna round: R96, puzzle: Same State NG 1)	–	30.6 nM	–	–	–	–
AUUUAAUUUACUCAGGAUAUGCAUAGAUAAACAUGAGGAUCACCCAUGUAAUUAUUUUUUAAUAAGUAGAAGGGAGAUUUUUAUU [splinter_arm[switch]] (puzzle: Same State 2)	–	–	–	54.9 nM	65.4 nM	147 nM
CUAUCUACAGGUUGCAGUGCUCGUCUUAUACAUGAGGAUCACCCAUGUUAUAGCCCGGUGCUUGCGCUGGGCUGACC [JL ViennaUCT Tearor mod 1] (puzzle: Sensor for hsa-mir-208a)	–	–	–	33.7 nM	15.6 nM	33.6 nM
CCUUAGUACAAUUUAGAUCUACAUGAGGAUCACCCAUGUACUGAGGAUAUCAGCUCGAUUAGAGCUGAGAAGGCAGAAGUACUU [SSNG3/7-A2] (Eterna round: R96, puzzle: Same State NG 3)	90.9 nM	122 nM	144 nM	–	–	–
GGUGCGAAAUAAGCCUACAUGAGGAUCACCCAUGUAUGUAGGCAGGAUAUCGUAUGCAAAGCAUACGAGAAGGGCUGACGCACC [Mat - Same State NG 3 - JL Mod - D51] (Eterna round: R96, puzzle: Same State NG 3)	32.5 nM	55.9 nM	75.4 nM	–	–	–
AACCAACAAAUAAAACAAGCGUGCUCGUCACAUGAGGAUCACCCAUGUUUAAGCGCUAUUCCUACUUCCUCAGCGCC [Ininceisa] (puzzle: Sensor for hsa-mir-208a)	–	–	–	104 nM	–	97.7 nM
AAUUUAAUACAUGAGGAUCACCCAUGUAAAUUAAUUAAGAUCUAGGAUAUCAGCUCGUUUAGAGCUGAGAAGGAGAUCACAUGU [SSNG3/19-B3] (Eterna round: R96, puzzle: Same State NG 3)	–	12.5 nM	–	–	–	–
GACAAUCUAUCUGAGGAUAUCAUGAAAAAAACAUGAGGAUCACCCAUGUGCAGGAAAACUGCAUAUGAGAAGGCAGAUAGAUUGG [salish99_SS2_r3_011] (puzzle: Same State 2)	–	–	–	31.2 nM	485 nM	613 nM
UUGAAGAAUUAAGGAUAUCGAGUCGUCAAAUUAAACAUGAGGAUCACCCAUGUGGGUUGUGGUAUCGAGAAGGUAAAUUACUAA [JR_SSNG2_Sub100] (Eterna round: R96, puzzle: Same State NG 2)	57.1 nM	66.4 nM	84.7 nM	–	–	–

— the supplement of paper PMC9170038
